The target in test [1] is T1, ICAM-1 (Homo sapiens, UniProt P05362). As to the kind of experiment: BIAcore binding of soluble αL I-domains to ICAM-1. As to conditions: for Kon, interaction of αL I-domains with ICAM-1: calculated by Koff/KD; for Koff, interaction of αL I-domains with ICAM-1: curve fitting of dissociation phase, 1:1 binding model. As for the experimental part:
Briefly, recombinant mutant αL I-domain stabilized in the open conformation (K287C/K294C), or recombinant wild-type αL I-domain from amino acid residue G128 to Y307, were cloned into pET11b (Novagen) and expressed in E. coli induced with 1 mM IPTG for 4 hours. The recombinant proteins were purified from inclusion bodies by solubilization of inclusion bodies in 6M guanidine HCl and were refolded by dilution in the presence of 0.1 mM Cu^2+/phenanthrolin to enhance formation of disulfide bonds. Protein was concentrated by ammonium sulfate precipitation, dialyzed, and purified over a monoQ ion-exchange column. […] The recombinant proteins were then purified by gel filtration and concentrated by Centriprep. For BIAcore™ analysis, recombinant ICAM-1, ICAM-2 and ICAM-3 Fc chimeras were immobilized on the BIAcore™ sensor chip by an amine-coupling method. Recombinant αL I-domains were flowed in, and BIAcore™ assays were performed with Tris-buffered saline supplemented with 1 mM MgCl2 or 2 mM EDTA, at a flow rate of 10 μl/minute at 25° C.
Target sequence in this assay (P05362 28-480 limits assumed): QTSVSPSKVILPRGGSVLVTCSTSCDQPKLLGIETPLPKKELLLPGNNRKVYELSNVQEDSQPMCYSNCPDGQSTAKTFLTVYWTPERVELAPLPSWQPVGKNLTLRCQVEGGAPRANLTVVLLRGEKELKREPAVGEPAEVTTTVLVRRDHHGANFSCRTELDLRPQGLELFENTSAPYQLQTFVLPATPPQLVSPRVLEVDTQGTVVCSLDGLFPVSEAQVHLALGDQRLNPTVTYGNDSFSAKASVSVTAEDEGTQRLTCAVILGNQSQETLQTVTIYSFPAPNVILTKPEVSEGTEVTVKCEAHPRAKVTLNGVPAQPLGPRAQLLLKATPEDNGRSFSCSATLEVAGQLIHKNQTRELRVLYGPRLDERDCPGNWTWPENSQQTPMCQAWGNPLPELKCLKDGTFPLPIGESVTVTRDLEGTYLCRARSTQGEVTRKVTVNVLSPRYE

In test [2] the target is T1, ICAM-1. As to the kind of experiment: Binding of LFA-1 or isolated I-domain transfectants to immobilized ICAM-1. As to conditions: for binding of K562 cells expressing isolated I-domains to immobilized ICAM-1: I-domain on cell surface via PDGFR transmembrane domain; for effect of Mn2+ or Mg2+ on ligand binding of isolated I-domains: K562, 1 mM Mn2+ or Mg2+; for effect of DTT treatment on binding to ICAM-1: K562 transfectants, DTT 10 mM in L15/FBS. Set-up: ICAM-1 was purified from human tonsil; from tissue; host or cells: human tonsil. The test is classed as cell-based. As for the experimental part: Clones of the transfectants that expressed similar levels of cell surface LFA-1, as determined by flow cytometry using monoclonal antibody TS2/4 (FIG. 3B), were tested for their ability to bind to immobilized ICAM-1, as previously described (Lu, C and Springer, T A (1997) J Immunol 159:268-278).
Briefly, ICAM-1 was purified from human tonsil, and coated to 96-well plates as described previously (Lu, C and Springer T A, (1997) J Immunol 159:268-278). Cells were labeled with a florescence dye 2′,7′-bis-(carboxyethyl)-5(and-6)-carboxyfluorescein, acetoxymethyl ester (BCECF-AM), and resuspended to 1×10^6/ml in L15/FBS. 50 μl cell suspension was mixed in ICAM-1 coated wells with an equal volume of L15/FBS in the absence or presence of monoclonal antibody (CBRLFA-1/2, 10 μg/ml). Monoclonal antibodies were used at final concentration of 1:20 hybridoma supernatant, 1:200 ascites, or μg/ml purified IgG. For testing the effect of divalent cations, BCECF-AM-labeled cells were washed 2× with TS buffer, pH7.5 (20 mM Tris, pH 7.5, 150 mMNaCl) containing 5 mM EDTA, followed by 2 washes with TS buffer, pH7.5. Cells were then resuspended to 5×10^5/ml in the TS buffer, pH7.5 supplemented with 1 mM MgCl2/CaCl2, MgCl2, MnCl2 mM EDTA, and 100 μl cell suspension was added to ICAM-1 coated wells. After incubation at 37° C. for 30 minutes, unbound cells were washed off on a Microplate Autowasher (Bio-Tek Instruments, Winooski, Vt.). The fluorescence content of total input cells and the bound cells in each well was quantitated on a Fluorescent Concentration Analyzer (IDEXX, Westbrook, Me.). The bound cells were expressed as a percentage of total input cells per sample well.
For generating stable K562 transfectants that express the I-domain on the surface, 20 μg of SspI-linearized pcDNA3.1/Hygro(+) containing the sequences encoding the I domain and the PDGFR transmembrane domain was used to transfect K562 cells by electroporation as described above. Transfectants were selected for resistance to 100 μg/ml hygromycin B, and were further subcloned by cell sorting and limiting dilution; clones that expressed similar levels of surface wild-type and mutant I domain-PDGFR were selected for functional studies. Stable cell lines were maintained in RPMI medium 1640 supplemented with 10% FBS and 100 μg/ml hygromycin B. Cell surface expression of the isolated I-domains was determined by flow cytometry using antibody TS1/22 to the I-domain (FIG. 7). Two clones from each transfectant were selected and tested for binding to immobilized ICAM-1, and similar results were obtained with each of the two clones (FIG. 8A).
If the constitutive ligand binding activity of mutant K287C/K294C is due to the formation of a disulfide bond between the introduced C287 and C294, disruption of the disulfide bond with a reducing agent would abolish ligand binding ability of the mutant. Accordingly, the transfectants were treated with the reducing agent DTT (10 mM) in L15/FBS containing Mg^2+ and Ca^2+, and the ability of transfectants to bind to ICAM-1 was assessed.
Furthermore, the effect of divalent cations on ligand binding of the isolated I-domains expressed on the surface of K562 transfectants was tested. The binding reactions were performed in HEPES/NaCl/glucose (20 mM HEPES, pH 7.5, 140 mM NaCl, 2 mg/ml glucose) supplemented with 1 mM […], 1 mM Mg^2+, or 1 mM EDTA.
Target sequence in this assay (P05362 28-532): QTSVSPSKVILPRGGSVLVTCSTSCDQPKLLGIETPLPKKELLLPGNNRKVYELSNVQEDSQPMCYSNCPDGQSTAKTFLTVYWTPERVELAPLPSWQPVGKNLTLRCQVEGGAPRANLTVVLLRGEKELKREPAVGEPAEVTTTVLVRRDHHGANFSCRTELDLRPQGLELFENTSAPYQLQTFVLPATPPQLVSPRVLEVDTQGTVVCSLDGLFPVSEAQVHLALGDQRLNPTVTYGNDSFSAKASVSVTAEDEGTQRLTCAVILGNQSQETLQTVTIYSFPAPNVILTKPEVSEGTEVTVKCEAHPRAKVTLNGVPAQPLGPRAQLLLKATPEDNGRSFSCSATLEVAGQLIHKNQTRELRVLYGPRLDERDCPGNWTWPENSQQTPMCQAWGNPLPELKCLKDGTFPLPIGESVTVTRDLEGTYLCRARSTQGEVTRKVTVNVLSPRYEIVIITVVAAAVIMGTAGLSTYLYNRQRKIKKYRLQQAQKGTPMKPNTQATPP

The test system of test [3] is T-lymphocytes in peripheral lymph node high endothelial venules. As to the kind of experiment: Intravital microscopy of lymphocyte behaviour in peripheral lymph node high endothelial venules. The format is in vivo. The following applies: mouse. As for the experimental part:
Moreover, the ability of the open I-domain mutants to inhibit LFA-1 function in vivo was tested by visualizing microcirculation in the peripheral lymph node (LN) with intravital microscopy. Briefly, a small bolus (20-50 µl) of LN cell suspensions from […] mice were retrogradely injected through a femoral artery catheter and visualized in the subiliac LN by fluorescent epi-illumination from a video-triggered xenon arc stroboscope. After recording control […] cell behavior in the absence of 1-domain, the mouse was pretreated by intra-arterial injection of 1-domain (10 µg/g of weight) 5 minutes before T^GFP cell injection. All scenes were recorded on videotape and off-line analysis was done. The rolling fraction was calculated as percentage of rolling cells amount the total number of TGFβ cells that entered a venule. The sticking (firm adhesion) fraction was determined as the percentage of T^GFP cells becoming firmly adherent for >20 seconds in the number of T^GFP cells that rolled in a venule. Results were semi-quantitatively scored as follows: −: 0%, .+−.: 0-5%, +: 5-20%, ++: 20-40%, +++: 40-60%, ++++: 60-80%, +++++:80-100%.

The Kd is the constant that tells how readily two partners part at equilibrium.

Residue numbers refer to the chain shown, from its start. Names and notes keep the numbering of the source.

B1: L289C/K294C: low affinity closed αL I-domain mutant, cysteines for L289 and K294 (protein)
chain: GNVDLVFLFDGSMSLQPDEFQKILDFMKDVMKKLSNTSYQFAAVQFSTSYKTEFDFSDYVKRKDPDALLKHVKHMLLLTNTFGAINYVATEVFREELGARPDATKVLIIITDGEATDSGNIDAAKDIIRYIIGIGKHFQTKESQETLHKFASKPASEFVKICDTFECLKDLFTELQKKIY
Turning to B1, in test [1], the “Kon, interaction of αL I-domains with ICAM-1” value is 2110 M⁻¹ s⁻¹ and the “Koff, interaction of αL I-domains with ICAM-1” value was 2.84 s⁻¹. Further, the “binding of 293T transient transfectants to immobilized ICAM-1 with activating mAb CBRLFA-1/2” value in test [2] (293T, CBRLFA-1/2 10 μg/ml) is listed as “not able to activate binding”. Further, the “binding of 293T transient transfectants to immobilized ICAM-1” value in test [2] (293T, no activating antibody) is on record as “did not bind”. Moreover, in test [2], the “binding of K562 cells expressing isolated I-domains to immobilized ICAM-1” value is on record as “did not bind”, the “effect of Mn2+ or Mg2+ on ligand binding of isolated I-domains” value is reported as “did not activate ligand binding” and the “effect of DTT treatment on binding to ICAM-1” value is “did not affect binding”. The “binding of K562 stable transfectants to immobilized ICAM-1 with activating mAb CBRLFA-1/2” value in test [2] (K562, CBRLFA-1/2 10 μg/ml) is “did not binding to ICAM-1”. In addition, the “effect of Mn2+ and Mg2+ on binding of K562 transfectants to ICAM-1” value in test [2] (K562, intact LFA-1, Mn2+ / Mg2+) was “did not increase binding”. In test [2] (K562, no activating antibody), the “binding of K562 stable transfectants to immobilized ICAM-1” value is given as “did not binding to ICAM-1”.

B2: wild-type I-domain: wild-type αL I-domain, soluble recombinant or expressed on K562 surface via PDGFR transmembrane domain (protein)
chain: B1 chain with C162L, C167K
As to B2, the Fraction transmigration result in test [3] (intra-arterial I-domain 10 μg/g) is recorded as “± (.+−.: 0-5%)”. For the same molecule, the “Fraction Rolling” value in test [3] (intra-arterial I-domain 10 μg/g 5 minutes before T-GFP cell injection) was “+++ (+++: 40-60%)”. For the same molecule, in test [3] (intra-arterial I-domain 10 μg/g, adherent >20 seconds), the Fraction firm adhesion entry was “++ (++: 20-40%)”. In test [1] (Scatchard plots using data at steady states, read-out: KD, interaction of αL I-domains with ICAM-1), the Kd came out at 1350 µM. For the same molecule, in test [1], the “Kon, interaction of αL I-domains with ICAM-1” value was 2220 M⁻¹ s⁻¹ and the “Koff, interaction of αL I-domains with ICAM-1” value was found to be 3.00 s⁻¹. Besides, in test [2], the “binding of K562 cells expressing isolated I-domains to immobilized ICAM-1” value is given as “did not bind”, the “effect of Mn2+ or Mg2+ on ligand binding of isolated I-domains” value was “did not activate ligand binding” and the “effect of DTT treatment on binding to ICAM-1” value is “did not affect binding”.

The values are drawn from US8241627B2, “Modified polypeptides stabilized in a desired conformation and methods for producing same” (The Center for Blood Research, Inc., priority 2000, dated 2012).
